{"source": "paper PMC9270254", "key": {"human IgG (human)": {"target": "human IgG (human)", "assay": "SPR"}, "human IgM (human)": {"target": "human IgM (human)", "assay": "SPR"}}}
{"substance": "single-chain mouse globular part of C1q (from UniProt P98086 110-245; Q02105 116-246; P14106 115-253) (domain or fragment)", "values": [{"measurement": "Kd1 (first phase, two-exponential fit)", "setting": "human IgG (human)", "value": 6.8, "unit": "nM"}, {"measurement": "kd1 (first phase, two-exponential fit)", "setting": "human IgG (human)", "value": 0.032, "unit": "s⁻¹"}, {"measurement": "kd2 (second phase, two-exponential fit)", "setting": "human IgG (human)", "value": 0.0021, "unit": "s⁻¹"}, {"measurement": "Kd1 (first phase, two-exponential fit)", "setting": "human IgM (human)", "value": 8.5, "unit": "nM"}, {"measurement": "kd1 (first phase, two-exponential fit)", "setting": "human IgM (human)", "value": 0.029, "unit": "s⁻¹"}, {"measurement": "kd2 (second phase, two-exponential fit)", "setting": "human IgM (human)", "value": 0.0023, "unit": "s⁻¹"}]}
